{
  "source": "patent US20130252821A1",
  "about": "“METHODS AND COMPOSITIONS FOR THE TREATMENT AND DIAGNOSIS OF DISEASES CHARACTERIZED BY VASCULAR LEAK, HYPOTENSION, OR A PROCOAGULANT STATE” (Beth Israel Deaconess Medical Center, Inc., priority 2005, published 2013)",
  "key": {"[1]": {"system": "mice (female FVB strain), lung", "assay": "In vivo permeability assay (Evans blue, LPS)", "set-up": "species or system mouse", "settings": "Ang-1 10 mcg ip x 2 doses", "protocol": "Mice (8-12 weeks old, female FVB strain) were pretreated with Ang-1 (10 mcg, ip). 8 hours after the first Ang-1 injection, the second dose of Ang-1 (10 mcg, ip) and LPS (100 μg, ip) were co-injected. Lung permeability was assessed 16 hours after the second injection. Mice were anesthetized with Avertin (2,2,2-Tribromoethanol) and 2% Evans blue (50 μl) was then injected into the retro-orbital sinus. Ten minutes after Evans blue injection, mice were sacrificed and perfused with PBS with 2 mM EDTA for 10 minutes through a cannula placed in the right ventricle. […] Organs were then harvested and homogenized in 1.5 nil formamide. Evans blue was extracted by incubating the samples at 70° C. for 24 hours, and the concentration of Evans blue was estimated by dual-wavelength spectrophotometer (620 and 740 nm). The following formula was used to correct optical densities (E) for contamination with heme pigments: E620 (corrected)=E620−(1.426XE740+0.030)."}, "[2]": {"system": "MLC phosphorylation (MLC-P)", "assay": "MLC-P immunoblot in HMVEC-L", "assay_type": "cell-based, human", "settings": "Ang-1, HMVEC-L", "protocol": "(§1) HMVEC-L were washed with ice-cold PBS three times and lysed with ice-cold RIPA buffer (50 mM Tris-HCl pH7.4, 150 mM NaCl, 1% NP-40, 0.5% Sodium Deoxycholate, 0.1% SDS and 1 mM EDTA) supplemented with protease inhibitors (Roche Diagnostics, Indianapolis, Ind.), 1 mM NaF and 1 mM Na3VO4. Lysates were sonicated and centrifuged at 10,000 rpm for 10 minutes at 4° C., and supernatants were collected. Protein concentrations were determined by BCA protein assay with bovine serum albumin as standard (Pierce, Rockford, Ill.). Lysates were electrophoresed using NuPAGE system (Invitrogen Life Technologies, Franklin Lakes, N.J.) and transferred to PVDF membrane and immunoblotted with specific primary antibodies. Binding of primary antibodies was detected using horseradish peroxidase-conjugated secondary antibodies (Amersham Bioscience, Piscataway, N.J.) and SuperSignal WestDura (Pierce) as a chemiluminescence substrate. Primary antibodies were obtained from these suppliers: anti-phospho-Akt Ab (Ser 473), anti-Akt Ab and anti-phospho-myosin light chain 2 (Ser19) Ab were from Cell Signaling Technology; anti-GAPDH Ab was from Chemicon International (Temecula, Calif.)."}, "Akt": {"system": "Akt", "assay": "Akt phosphorylation (Western blot) in HMVEC-L", "assay_type": "cell-based, human", "settings": "Ang-1 100 ng/ml, 15 minutes", "protocol": "as §1"}, "p85 subunit of PI3K": {"system": "p85 subunit of PI3K", "assay": "PI3K activity assay (p85 phosphorylation ELISA)", "assay_type": "cell-based, human", "settings": "Ang-1 100 ng/ml, 15 minutes", "protocol": "After signal starvation, HMVEC-L were treated with vehicle or Ang-1 (100 ng/ml) for 15 minutes. Total and phosphorylated p85 subunits of PI3K were quantified using a commercial enzyme-linked immunosorbent assay according to the manufacturer's instruction (Active Motif, Carlsbad, Calif.). Phosphorylated PI3K p85 subunit was corrected by total PI3K."}, "[3]": {"system": "myosin light chain (MLC) phosphorylation in HMVECs", "assay": "MLC phosphorylation assay (Western blot)", "assay_type": "cell-based, human", "settings": "Ang-1 100 ng/ml added", "protocol": "After signal starvation with 0.25% FBS EBM-2 for 24 h, cells were treated with 100 ng/ml Ang-2 or vehicle for 0, 1, 3, and 6 hours. Phosphorylated myosin light chain (MLC-p) (phospho-serine 19) and GAPDH were detected by Western blot analysis. For human subject serum effects on HMVECs, serum was diluted to 5% with EBM-2 and filtered with low protein binding PVDF membrane (0.22 μm, Millipore Corp, Bedford, Mass.). Anti-MLC-phospho-serine-19 Ab was obtained from Abcam Inc."}, "HMVEC monolayers": {"system": "HMVEC monolayers", "assay": "Immunofluorescence of endothelial architecture (F-actin, VE-cadherin)", "assay_type": "cell-based, human", "settings": "10% patient serum plus 100 ng/ml recombinant human Ang-1", "protocol": "HMVEC were grown to confluence on glass coverslips coated with 1% gelatin. The cells were fixed for 10 minutes in 4% paraformaldehyde in PBS, incubated for 5 min in 0.5% Triton X-100 in PBS. After blocking, the monolayers were processed for staining with anti-VE-cadherin monoclonal antibody (BD Pharmingen, San Diego, Calif.) and Alexa Fluoro 488 goat anti-mouse IgG, rhodamine phalloidin (Molecular Probe, Eugene, Oreg.) for F-actin staining and TOPRO-3-iodine (Molecular Probe) for nuclear staining. Fluorescence images were obtained using a Bio Rad MRC confocal fluorescence microscope. For human subject serum experiments, serum was diluted to 10% with EBM-2 and filtered with low protein binding PVDF membrane (0.22 μm, Millipore Corp) prior to application on endothelial cell monolayers."}},
  "data": [
    {"molecule": "Ang-1: Human recombinant angiopoietin-1 purchased from R&D systems; Tie-2 agonist, endogenous Ang-2 antagonist (protein, listed as Homo sapiens) MTVFLSFAFLAAILTHIGCSNQRRSPENSGRRYNRIQHGQCAYTFILPEHDGNCRESTTDQYNTNALQRDAPHVEPDFSSQKLQHLEHVMENYTQWLQKLENYIVENMKSEMAQIQQNAVQNHTATMLEIGTSLLSQTAEQTRKLTDVETQVLNQTSRLEIQLLENSLSTYKLEKQLLQQTNEILKIHEKNSLLEHKILEMEGKHKEELDTLKEEKENLQGLVTRQTYIIQELEKQLNRATTNNSVLQKQQLELMDTVHNLVNLCTKEGVLLKGGKREEEKPFRDCADVYQAGFNKSGIYTIYINNMPEPKKVFCNMDVNGGGWTVIQHREDGSLDFQRGWKEYKMGFGNPSGEYWLGNEFIFAITSQRQYMLRIELMDWEGNRAYSQYDRFHIGNEKQNYRLYLKGHTGTAGKQSSLILHGADFSTKDADNDNCMCKCALMLTGGWWFDACGPSNLNGMFYTAGQNHGKLNGIKWHYFKGPSYSLRSTTMMIRPLDF", "values": [
      {"measurement": "effect on endotoxin-increased lung permeability", "setting": "[1]", "result": "blocked"},
      {"measurement": "time of peak MLC phosphorylation (MLC-P) after stimulation", "setting": "[2]", "result": "0.5 to 1.0", "unit": "h"},
      {"measurement": "Akt phosphorylation", "setting": "Akt", "result": "induces Akt phosphorylation"},
      {"measurement": "phosphorylation of the p85 subunit of PI3K", "setting": "p85 subunit of PI3K", "result": "induces phosphorylation of the p85 subunit of PI3K"},
      {"measurement": "effect on MLC phosphorylation caused by high Ang-2 serum (CE2)", "setting": "[3]", "result": "inhibited"},
      {"measurement": "reversal of gap formation provoked by high Ang-2 sepsis serum", "setting": "HMVEC monolayers", "result": "reversed"}
    ]}
  ]
}
